In test [1] the target is Ang2-BD_(C1.70), yeast-displayed (human) (UniProt O15123). Description: flow cytometry on cells; Ang2-BD displayed on yeast, soluble Tie2-Fc in 20 mM Hepes pH 7.0, 150 mM NaCl, 1% BSA, 1 h at room temperature; detected with anti-human Fc FITC; binding MFI divided by expression MFI (c-Myc) and normalized to Ang2-BDWT. A general note: A flow cytometer gives signals particle by particle.

For test [2], the target named is Ang2-BD_(C2.36), yeast-displayed (human) (UniProt O15123). The description is as above.
The target of test [3] is T1, rhTie2 extracellular domain (human, UniProt Q02763 23-748).
T1 construct: receptor tyrosine kinase Tie2, recombinant human, extracellular domain; also called immobilized Tie2; recombinant soluble Tie2; source: bought: Sino Biological Inc
T1 sequence (Q02763 23-748): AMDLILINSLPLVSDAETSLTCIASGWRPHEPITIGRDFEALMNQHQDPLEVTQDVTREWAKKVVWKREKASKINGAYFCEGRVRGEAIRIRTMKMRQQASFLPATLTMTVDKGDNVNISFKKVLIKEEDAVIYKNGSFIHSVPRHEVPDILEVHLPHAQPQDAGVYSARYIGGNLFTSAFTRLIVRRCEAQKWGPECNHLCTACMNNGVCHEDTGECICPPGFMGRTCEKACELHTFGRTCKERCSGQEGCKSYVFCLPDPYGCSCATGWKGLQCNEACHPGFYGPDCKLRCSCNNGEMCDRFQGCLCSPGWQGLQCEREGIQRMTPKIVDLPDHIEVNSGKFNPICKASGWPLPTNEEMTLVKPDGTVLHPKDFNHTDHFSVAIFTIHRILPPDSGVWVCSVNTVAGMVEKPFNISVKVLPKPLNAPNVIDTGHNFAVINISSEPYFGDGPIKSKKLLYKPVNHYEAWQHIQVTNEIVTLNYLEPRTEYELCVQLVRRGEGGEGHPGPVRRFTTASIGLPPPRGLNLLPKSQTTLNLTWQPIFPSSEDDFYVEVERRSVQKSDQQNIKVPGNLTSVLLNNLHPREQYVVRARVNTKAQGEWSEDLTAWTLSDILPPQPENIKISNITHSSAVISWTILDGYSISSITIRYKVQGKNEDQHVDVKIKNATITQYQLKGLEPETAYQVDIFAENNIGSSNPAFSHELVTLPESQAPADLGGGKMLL
The test can be described thus: SPR; ProteOn XPR36, rhTie2 extracellular domain amine-coupled to a GLC chip (2100 RU), Ang2-BD variants as analytes, 25°C, 20 mM Hepes pH 7.0, 150 mM NaCl, 1 mM CaCl2; steady state for Ang2-BDWT, two-state model for the variants. As to conditions: both partners purified. (In general: Surface plasmon resonance follows binding to a sensor surface in real time, without labels.)

For the molecule “Recombinant human Tie2 (Ala23-Lys745) Fc fusion, soluble Tie2-Fc (from UniProt Q02763 23-745)”, in test [1], the fold increase in affinity relative to Ang2-BDWT was 2.5 fold. In addition, the fold increase in binding affinity as compared to Ang2-BDWT in test [2] turned out to be 17 fold.

B1: Ang2-BDWT, soluble (domain or fragment, human, UniProt O15123 281-496, looked up)
chain: FRDCAEVFKSGHTTNGIYTLTFPNSTEEIKAYCDMEAGGGGWTIIQRREDGSVDFQRTWKEYKVGFGNPSGEYWLGNEFVSQLTNQQRYVLKIHLKDWEGNEAYSLYEHFYLSSEELNYRIHLKGLTGTAGKISSISQPGNDFSTKDGDNDKCICKCSQMLTGGWWFDACGPSNLNGMYYPQRQNTNKFNGIKWYYWKGSGYSLKATTMMIRPADF
notes: N-linked carbohydrates removed with Endo Hf; also called wild-type Ang2-BD; parental Ang2-BD; source: Pichia pastoris GS115, purified from culture supernatant (HisTrap, Endo Hf treatment, Superdex 75); not shown: FLAG, N-terminal, kept
As a reminder, the Kd is a measure of binding affinity in units of concentration. High values mean weaker binding, low ones tighter binding. B1 registered a Kd in test [3] of 434 nM. In other words, the sub-micromolar range.

The values above are taken from paper PMC5464891, “Utilizing combinatorial engineering to develop Tie2 targeting antagonistic angiopoetin-2 ligands as candidates for anti-angiogenesis therapy” (Oncotarget, 2017).
